Measurements from patent publication US20200079833A1 (AstraZeneca / MedImmune, published 2020).
Starred links: 1 amine or outer side, 2 acyl side, 3 side chain; linkers in the order of their positions; H or OH if unused. Non-standard residues stand in square brackets, D forms with d. Groups on a side chain read outwards from the residue. Primed or numbered codes have the meaning given here. No end group written: not given here. *: point of attachment. γGlu = O=C(O)[C@H](CCC(=O)[*:2])N[*:1]; Stearoyl = CCCCCCCCCCCCCCCCCC(=O)*; αMeF = C[C@](N)(Cc1ccccc1)C(=O)O; αMeK = C[C@](N)(CCCCN)C(=O)O; αMeS = C[C@](N)(CO)C(=O)O; PEG2′ = not defined here; Aib = CC(C)(N)C(=O)O

B1: SEQ ID NO 103 (peptide)
peptide: H[Aib]EGS[αMeF]TSDV[αMeS]S[αMeF]LEGEAA[αMeK]E[αMeF]IA[αMeF]K([PEG2′-PEG2′-γGlu-Stearoyl])V[αMeK]GG-NH2
B2: SEQ ID NO 113 (peptide)
peptide: H[Aib]EGS[αMeF]TSDV[αMeS]S[αMeF]LEK([PEG2′-PEG2′-γGlu-Stearoyl])EAA[αMeK]E[αMeF]IA[αMeF]VV[αMeK]GG-NH2
B3: SEQ ID NO 108 (peptide)
peptide: H[Aib]EGS[αMeF]TSDV[αMeS]S[αMeF]LEGEAA[αMeK]K([PEG2′-PEG2′-γGlu-Stearoyl])[αMeF]IA[αMeF]VV[αMeK]GG-NH2
B4: SEQ ID NO 101 (peptide)
peptide: H[Aib]EGS[αMeF]TSDV[αMeS]S[αMeF]LEGEAA[αMeK]E[αMeF]IA[αMeF]VVK([PEG2′-PEG2′-γGlu-Stearoyl])GG-NH2
B5: SEQ ID NO 104 (peptide)
peptide: H[Aib]EGS[αMeF]TSDV[αMeS]S[αMeF]LEGEAA[αMeK]E[αMeF]IAK([PEG2′-PEG2′-γGlu-Stearoyl])VV[αMeK]GG-NH2
B6: SEQ ID NO 110 (peptide)
peptide: H[Aib]EGS[αMeF]TSDV[αMeS]S[αMeF]LEGEAK([PEG2′-PEG2′-γGlu-Stearoyl])[αMeK]E[αMeF]IA[αMeF]VV[αMeK]GG-NH2

What follows are binders tested against T1, glucose-dependent insulinotropic peptide (gastric inhibitory polypeptide) receptor (GIPR) (human, UniProt P48546 22-466) (assay: cell-based or functional assay).
T1 sequence (looked up): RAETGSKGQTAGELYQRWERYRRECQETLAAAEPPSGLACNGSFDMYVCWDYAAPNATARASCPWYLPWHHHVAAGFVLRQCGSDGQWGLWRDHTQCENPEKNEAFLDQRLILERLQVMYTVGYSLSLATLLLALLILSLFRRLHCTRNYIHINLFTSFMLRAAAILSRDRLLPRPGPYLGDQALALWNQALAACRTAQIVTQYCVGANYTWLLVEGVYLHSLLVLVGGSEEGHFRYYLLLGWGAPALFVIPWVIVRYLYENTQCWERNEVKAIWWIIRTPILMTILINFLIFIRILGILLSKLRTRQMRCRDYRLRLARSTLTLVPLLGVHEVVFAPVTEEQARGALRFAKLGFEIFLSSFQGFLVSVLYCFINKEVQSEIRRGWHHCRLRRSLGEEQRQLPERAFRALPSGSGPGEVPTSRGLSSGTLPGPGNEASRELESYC

Row | Binder | cAMP Primary assay EC50 GIP-R | cAMP Primary assay EC50 GIP-R (2nd)
1 | B1 | 25 nM | 25.2 nM
2 | B2 | 25 nM | 24.9 nM
3 | B3 | 25 nM | 25.4 nM
4 | B4 | 25 nM | 25.4 nM
5 | B5 | 26 nM | 25.6 nM
6 | B6 | 25 nM | 25 nM

What follows are binders tested against glucagon receptor (GCGR) (human, UniProt P47871 26-477) (assay: cell-based or functional assay).
Chain of glucagon receptor (GCGR) (P47871 26-477): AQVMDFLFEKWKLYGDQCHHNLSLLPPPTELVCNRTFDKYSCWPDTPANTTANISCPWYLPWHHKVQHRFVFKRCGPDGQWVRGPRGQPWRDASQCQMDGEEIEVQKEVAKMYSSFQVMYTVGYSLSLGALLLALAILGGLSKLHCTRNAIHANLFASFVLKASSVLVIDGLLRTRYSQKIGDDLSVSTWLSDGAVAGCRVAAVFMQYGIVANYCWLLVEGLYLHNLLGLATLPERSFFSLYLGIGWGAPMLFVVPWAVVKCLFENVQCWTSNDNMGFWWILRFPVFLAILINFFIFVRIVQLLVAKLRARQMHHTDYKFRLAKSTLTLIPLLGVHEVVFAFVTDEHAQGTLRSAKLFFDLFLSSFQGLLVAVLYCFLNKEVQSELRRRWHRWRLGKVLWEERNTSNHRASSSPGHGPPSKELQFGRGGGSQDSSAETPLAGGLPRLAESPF

Row | Binder | cAMP Primary assay EC50 Gluc-R | cAMP Primary assay EC50 Gluc-R (2nd)
7 | B1 | 25 nM | 25.2 nM
8 | B2 | 25 nM | 24.9 nM
9 | B3 | 25 nM | 25.4 nM
10 | B4 | 25 nM | 25.4 nM
11 | B5 | 26 nM | 25.6 nM
12 | B6 | 25 nM | 25 nM

Each binder was assayed against GLP-1 receptor (GLP-1R) (human, UniProt P43220 24-463) (assay: cell-based or functional assay).

Row | Binder | cAMP Mean pM GLP-1R | cAMP Primary assay EC50 GLP-1R n1 | cAMP Primary assay EC50 GLP-1R n2
13 | B1 | 5 pM | 0.0047 nM | 0.00456 nM
14 | B2 | 18 pM | 0.018 nM | 0.0174 nM
15 | B3 | 4 pM | 0.0038 nM | 0.00346 nM
16 | B4 | 55 pM | 0.058 nM | 0.0512 nM
17 | B5 | 5 pM | 0.0059 nM | 0.00511 nM
18 | B6 | 62 pM | 0.06 nM | 0.0639 nM
